Measured values taken from patent publication EP4786492A1.
“And” between values parts separate entries of the source, which are not always exact repeats. Equal entries are not always repeated.

Key:
[1] = target: monkey DLL3 on CHO K1-cyno DLL3 cells (cynomolgus monkey DLL3 extracellular segment joined to EpCAM transmembrane and intracellular regions) (cynomolgus monkey); assay: FACS, CHO K1-cyno DLL3 cells, 100 nM antibody
[2] = target: monkey DLL3 on CHO K1-cyno DLL3 cells (cynomolgus monkey DLL3 extracellular segment joined to EpCAM transmembrane and intracellular regions) (cynomolgus monkey); assay: FACS, CHO K1-cyno DLL3 cells, 0.8 nM antibody
[3] = target: monkey DLL3 on CHO K1-cyno DLL3 cells (cynomolgus monkey DLL3 extracellular segment joined to EpCAM transmembrane and intracellular regions) (cynomolgus monkey); assay: FACS, CHO K1-cyno DLL3 cells, 0.0064 nM antibody
[4] = target: human DLL3 endogenously expressed on SHP77 and NCI-H82 cells (human) (UniProt Q9NYJ7); assay: FACS SHP77 cells, 0.8 nM
human DLL3 endogenously expressed on SHP77 and NCI-H82 cells (human), sequence (Q9NYJ7 27-618): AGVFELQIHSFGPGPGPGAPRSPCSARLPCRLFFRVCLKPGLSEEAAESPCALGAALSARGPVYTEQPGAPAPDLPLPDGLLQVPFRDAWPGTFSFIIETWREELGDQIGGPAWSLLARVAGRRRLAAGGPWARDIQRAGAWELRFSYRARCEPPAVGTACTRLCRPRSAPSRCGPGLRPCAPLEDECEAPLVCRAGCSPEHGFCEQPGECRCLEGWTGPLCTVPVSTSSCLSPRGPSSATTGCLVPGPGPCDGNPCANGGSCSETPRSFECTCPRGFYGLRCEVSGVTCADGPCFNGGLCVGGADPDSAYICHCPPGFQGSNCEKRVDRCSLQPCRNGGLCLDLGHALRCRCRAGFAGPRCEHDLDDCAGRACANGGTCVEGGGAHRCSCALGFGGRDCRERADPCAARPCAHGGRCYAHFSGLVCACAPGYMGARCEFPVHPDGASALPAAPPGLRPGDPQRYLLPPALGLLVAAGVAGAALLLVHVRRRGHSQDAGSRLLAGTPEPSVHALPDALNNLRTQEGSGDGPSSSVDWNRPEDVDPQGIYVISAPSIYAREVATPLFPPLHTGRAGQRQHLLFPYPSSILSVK

[5] = target: monkey DLL3 on CHO K1-cyno DLL3 cells (cynomolgus monkey DLL3 extracellular segment joined to EpCAM transmembrane and intracellular regions) (cynomolgus monkey); assay: FACS, CHO K1-cyno DLL3 cells, 20 nM antibody
[6] = target: monkey DLL3 on CHO K1-cyno DLL3 cells (cynomolgus monkey DLL3 extracellular segment joined to EpCAM transmembrane and intracellular regions) (cynomolgus monkey); assay: FACS, CHO K1-cyno DLL3 cells, 4 nM antibody
[7] = target: human DLL3 endogenously expressed on SHP77 and NCI-H82 cells (human) (UniProt Q9NYJ7); assay: FACS SHP77 cells, 0.0064 nM
[8] = target: monkey DLL3 on CHO K1-cyno DLL3 cells (cynomolgus monkey DLL3 extracellular segment joined to EpCAM transmembrane and intracellular regions) (cynomolgus monkey); assay: FACS, CHO K1-cyno DLL3 cells, 0.16 nM antibody
[9] = target: monkey DLL3 on CHO K1-cyno DLL3 cells (cynomolgus monkey DLL3 extracellular segment joined to EpCAM transmembrane and intracellular regions) (cynomolgus monkey); assay: FACS, CHO K1-cyno DLL3 cells, 0.00128 nM antibody
[10] = target: human DLL3 endogenously expressed on SHP77 and NCI-H82 cells (human) (UniProt Q9NYJ7); assay: FACS SHP77 cells, 4 nM
[11] = target: human DLL3 endogenously expressed on SHP77 and NCI-H82 cells (human) (UniProt Q9NYJ7); assay: FACS SHP77 cells, 0.16 nM
[12] = target: human DLL3 endogenously expressed on SHP77 and NCI-H82 cells (human) (UniProt Q9NYJ7); assay: FACS SHP77 cells, 20 nM
[13] = target: human DLL3 endogenously expressed on SHP77 and NCI-H82 cells (human) (UniProt Q9NYJ7); assay: FACS SHP77 cells, 100 nM
[14] = target: human DLL3 endogenously expressed on SHP77 and NCI-H82 cells (human) (UniProt Q9NYJ7); assay: FACS SHP77 cells, 0.032 nM
[15] = target: human DLL3 endogenously expressed on SHP77 and NCI-H82 cells (human) (UniProt Q9NYJ7); assay: FACS SHP77 cells, 0.00128 nM
[16] = target: human DLL1 protein (human) (UniProt O00548); assay: ELISA, maximum over 0.1-100 nM
human DLL1 protein (human), sequence (O00548 18-540 limits assumed): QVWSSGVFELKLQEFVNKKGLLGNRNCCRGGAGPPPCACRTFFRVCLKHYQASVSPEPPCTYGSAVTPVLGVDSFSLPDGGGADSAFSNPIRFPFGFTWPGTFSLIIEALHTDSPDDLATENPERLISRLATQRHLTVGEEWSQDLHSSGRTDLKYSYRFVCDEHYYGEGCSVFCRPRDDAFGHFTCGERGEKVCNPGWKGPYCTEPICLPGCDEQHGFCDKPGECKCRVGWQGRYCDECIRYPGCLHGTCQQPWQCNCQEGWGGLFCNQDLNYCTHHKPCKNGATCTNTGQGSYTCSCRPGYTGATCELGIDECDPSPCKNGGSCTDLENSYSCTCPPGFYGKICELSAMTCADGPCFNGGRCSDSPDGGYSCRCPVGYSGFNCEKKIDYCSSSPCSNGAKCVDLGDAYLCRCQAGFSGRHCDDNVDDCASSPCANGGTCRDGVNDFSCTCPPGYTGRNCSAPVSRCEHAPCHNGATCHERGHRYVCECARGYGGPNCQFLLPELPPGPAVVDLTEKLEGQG

[17] = target: human DLL4 protein (human) (UniProt Q9NR61); assay: ELISA, maximum over 0.1-100 nM
human DLL4 protein (human), sequence (Q9NR61 27-524 limits assumed): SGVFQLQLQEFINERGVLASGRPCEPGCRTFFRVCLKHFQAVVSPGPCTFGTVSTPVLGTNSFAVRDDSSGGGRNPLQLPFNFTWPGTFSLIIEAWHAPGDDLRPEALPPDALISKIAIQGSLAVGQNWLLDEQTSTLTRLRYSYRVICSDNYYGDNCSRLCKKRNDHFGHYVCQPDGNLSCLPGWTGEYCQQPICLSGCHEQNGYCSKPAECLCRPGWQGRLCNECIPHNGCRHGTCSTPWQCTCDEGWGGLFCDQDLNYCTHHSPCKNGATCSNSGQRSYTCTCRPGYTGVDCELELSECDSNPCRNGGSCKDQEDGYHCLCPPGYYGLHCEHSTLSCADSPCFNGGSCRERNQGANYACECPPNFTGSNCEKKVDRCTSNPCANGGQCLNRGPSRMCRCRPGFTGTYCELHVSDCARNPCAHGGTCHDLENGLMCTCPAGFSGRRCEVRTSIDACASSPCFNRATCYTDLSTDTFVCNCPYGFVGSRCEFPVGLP

[18] = target: monkey DLL3 on CHO K1-cyno DLL3 cells (cynomolgus monkey DLL3 extracellular segment joined to EpCAM transmembrane and intracellular regions) (cynomolgus monkey); assay: FACS, CHO K1-cyno DLL3 cells, 0.032 nM antibody

monkey DLL3 on CHO K1-cyno DLL3 cells (cynomolgus monkey DLL3 extracellular segment joined to EpCAM transmembrane and intracellular regions) (cynomolgus monkey), sequence (chain, as listed by the source limits assumed): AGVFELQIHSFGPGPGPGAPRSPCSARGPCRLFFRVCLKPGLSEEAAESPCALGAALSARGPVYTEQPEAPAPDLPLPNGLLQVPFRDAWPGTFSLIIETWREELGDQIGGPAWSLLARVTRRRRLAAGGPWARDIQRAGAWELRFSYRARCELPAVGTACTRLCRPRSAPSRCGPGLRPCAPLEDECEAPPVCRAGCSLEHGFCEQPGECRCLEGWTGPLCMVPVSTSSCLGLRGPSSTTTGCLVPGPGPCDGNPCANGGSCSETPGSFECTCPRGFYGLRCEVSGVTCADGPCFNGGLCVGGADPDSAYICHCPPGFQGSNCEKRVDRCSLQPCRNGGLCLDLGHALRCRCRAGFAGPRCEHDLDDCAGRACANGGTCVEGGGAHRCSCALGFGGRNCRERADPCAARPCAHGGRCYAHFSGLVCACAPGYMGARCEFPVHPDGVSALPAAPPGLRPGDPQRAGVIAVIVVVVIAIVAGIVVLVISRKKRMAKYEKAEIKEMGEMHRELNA

Substance | MFI [1] | MFI [2] | MFI [3] | MFI [4] | MFI [5] | MFI [6] | MFI [7] | MFI [8] | MFI [9] | MFI [10] | MFI [11] | MFI [12] | MFI [13] | MFI [14] | MFI [15] | Emax of OD450 nm binding value [16] | Emax of OD450 nm binding value [17] | MFI [18]
SC16.56 (antibody) | 4930 MFI and 2330 MFI | 4510 MFI and 1900 MFI | 314 MFI and 189 MFI | 465 MFI and 478 MFI | 5010 MFI and 2630 MFI | 5040 MFI and 2330 MFI | 235 MFI and 146 MFI | 1970 MFI and 700 MFI | 161 MFI and 185 MFI | 476 MFI and 517 MFI | 432 MFI and 411 MFI | 500 MFI and 566 MFI | 529 MFI and 628 MFI | 334 MFI and 234 MFI | 188 MFI and 146 MFI | 0.05 OD450 | 0.05 OD450 | 690 MFI and 299 MFI
hIgG1 (antibody) |  |  |  |  |  |  |  |  |  |  |  |  |  |  |  | 0.04 OD450 and 0.05 OD450 and 0.07 OD450 | 0.04 OD450 and 0.07 OD450 and 0.05 OD450 | 
